Test results reported in paper PMC9971032, “Structure and mechanism of a tripartite ATP-independent periplasmic TRAP transporter” (Nature Communications, 2023).

How the values were obtained:
[1] = biological target: SiaQM transporter complex from Photobacterium profundum (Photobacterium profundum)
[2] = biological target: SiaQM complex with SiaM R292A (Photobacterium profundum)
SiaP = biological target: T1, SiaP (Photobacterium profundum, UniProt Q6LPV9); assay: isothermal titration calorimetry; type: binding; conditions: 50 mM Tris-HCl pH 8.0, 150 mM NaCl, 25 °C; single-site fit
T1 construct: gene SMB20295; native signal peptide (residues 1-22) removed, apparently untagged (pET30deltaSE, ion-exchange and hydrophobic purification), E. coli BL21(DE3)
Source text: isothermal titration calorimetry on SiaP | We confirmed that SiaP binds sialic acid with nanomolar affinity

Compound: SiaP D59A (natural protein)
- reduction of [3H]-Neu5Ac transport activity in proteoliposomes against wildtype SiaPQM [1]: 77 % reduction

Compound: SiaP (substrate-binding P-subunit of the sialic acid TRAP transporter from Photobacterium profundum) (natural protein)
- reduction of [3H]-Neu5Ac transport activity in proteoliposomes against wildtype SiaPQM [2]: 87 % reduction

Compound: CC(=O)N[C@H]1[C@H]([C@H](O)[C@H](O)CO)OC(O)(C(=O)O)C[C@@H]1O (stereo partly drawn) [Neu5Ac]
- Kd (SiaP): 561 nM
